Assay results: paper PMC4020936
Values belong to the substance of their own block, whether it stands above or below them.

Experiments:
[1] = molecular target: C13S-mutant rGlEB1 (G. lamblia); experiment: SEC; about 800 µg rGlEB1 in PBS on Superdex 75 10/300 GL; size markers 75, 29, 14 and 6 kDa; monomer to dimer
[2] = molecular target: C46S-mutant rGlEB1 (G. lamblia); experiment: SDS-PAGE of SEC fractions without DTT; fractions eluted from SEC separated by SDS-PAGE without DTT; shows disulfide-linked dimers only
[3] = molecular target: full-length recombinant Giardia lamblia end-binding 1 protein, rGlEB1_(1–238) (G. lamblia); experiment: SEC; about 800 µg rGlEB1 in PBS on Superdex 75 10/300 GL; size markers 75, 29, 14 and 6 kDa; monomer to dimer
[4] = molecular target: full-length recombinant Giardia lamblia end-binding 1 protein, rGlEB1_(1–238) (G. lamblia); experiment: SDS-PAGE of SEC fractions without DTT; fractions eluted from SEC separated by SDS-PAGE without DTT; shows disulfide-linked dimers only
[5] = molecular target: truncated recombinant G. lamblia EB1, rGlEB1_(1–184) (CH domain and linker) (G. lamblia); experiment: SEC; about 800 µg rGlEB1 in PBS on Superdex 75 10/300 GL; size markers 75, 29, 14 and 6 kDa; monomer to dimer

Substance: C13S-mutant rGlEB1 (natural protein)
stoichiometry N [1]: 2

Substance: C46S-mutant rGlEB1 (natural protein)
stoichiometry N [2]: 2

stoichiometry N [3]: 2 | stoichiometry N [4]: 2
Substance: full-length recombinant Giardia lamblia end-binding 1 protein, rGlEB1_(1–238) (natural protein)

stoichiometry N [5]: 2
Substance: truncated recombinant G. lamblia EB1, rGlEB1_(1–184) (CH domain and linker) (domain or fragment)
